Results as given in article PMC5679652, “Broadening the functionality of a J-protein/Hsp70 molecular chaperone system” (PLoS Genetics, 2017).
Where no end group is shown, it is not given here. Flc = fluorescein label

Legend:
[1] = molecular target: T1, Ssa1 (wild type, His-tagged) (S. cerevisiae, UniProt P10591 1-642)
T1 construct: Ssa1, cytosolic Hsp70 of Saccharomyces cerevisiae; Ssa1(1-532) is said to lack 110 residues, so the whole protein has 642 residues; Assayed with 1 mM ADP (anisotropy) or as a preformed 32P-ATP complex (ATPase); also called WT Ssa1; His-Ssa
T1 sequence (P10591 whole entry): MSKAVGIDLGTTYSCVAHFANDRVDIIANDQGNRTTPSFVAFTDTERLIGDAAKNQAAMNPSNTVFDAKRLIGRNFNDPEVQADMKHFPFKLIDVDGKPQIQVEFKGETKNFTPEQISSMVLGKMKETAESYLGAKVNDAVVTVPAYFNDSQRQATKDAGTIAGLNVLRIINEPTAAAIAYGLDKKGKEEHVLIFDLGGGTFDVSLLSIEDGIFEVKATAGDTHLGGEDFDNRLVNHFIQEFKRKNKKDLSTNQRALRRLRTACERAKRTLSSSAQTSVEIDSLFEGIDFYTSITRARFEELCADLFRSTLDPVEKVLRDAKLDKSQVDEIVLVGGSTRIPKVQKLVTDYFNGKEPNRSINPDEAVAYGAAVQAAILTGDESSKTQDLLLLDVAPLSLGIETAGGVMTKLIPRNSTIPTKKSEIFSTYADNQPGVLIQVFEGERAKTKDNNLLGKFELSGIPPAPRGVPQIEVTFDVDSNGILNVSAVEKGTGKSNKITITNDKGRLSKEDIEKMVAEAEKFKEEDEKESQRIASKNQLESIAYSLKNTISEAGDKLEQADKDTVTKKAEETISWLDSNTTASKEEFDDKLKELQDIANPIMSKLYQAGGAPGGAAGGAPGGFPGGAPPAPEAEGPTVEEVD

[2] = molecular target: T2, Ssa1 R444E (His-tagged) (S. cerevisiae, UniProt P10591 1-642, R444E); assay: cell-based or functional assay
T2 sequence (P10591 whole entry R444E): as the sequence (P10591 whole entry) above, with R444E counted along it

[3] = molecular target: T3, Ssa1 K446E (His-tagged) (S. cerevisiae, UniProt P10591 1-642, K446E); assay: cell-based or functional assay
T3 sequence (P10591 whole entry K446E): as the sequence (P10591 whole entry) above, with K446E counted along it

[4] = molecular target: T1, Ssa1 (wild type, His-tagged); assay: fluorescence polarisation; dissociation kinetics: 5 uM Ssa1, 10 nM F-P5, 1 mM ADP brought to equilibrium, then unlabeled P5 added to 40 uM; read every 10 s; percent of the signal at t = 0; conditions: both partners purified
[5] = molecular target: T1, Ssa1 (wild type, His-tagged); assay: fluorescence polarisation; equilibrium titration: 10 nM F-P5 with Ssa1 in 2-fold steps from 2.4 nM to 5 uM, 1 mM ADP, buffer A (25 mM Hepes-KOH pH 7.5, 100 mM KCl, 11 mM MgOAc), 4% glycerol, 0.005% NP-40, 24 hr at room temperature (23°C); one site saturation fit; conditions: both partners purified
[6] = molecular target: T2, Ssa1 R444E (His-tagged); assay: as above; conditions: both partners purified
[7] = molecular target: T3, Ssa1 K446E (His-tagged); assay: as above; conditions: both partners purified

With “Ydj1 G70N (from UniProt P25491 1-409) (natural protein)” the stimulation of single-turnover ATPase activity of the 32P-ATP/Ssa1 complex, compared with WT Ydj1 (% less active than WT) [1] was 20.

B1: peptide P5 (unlabeled) (peptide)
peptide: CALLLSAPRR
notes: peptide substrate P5; also called unlabeled P5; peptide substrate; source: bought: Sigma Chemical, St. Louis, MO
For B1, the “fold stimulation of single-turnover ATPase activity of the 32P-ATP/Ssa1 complex by peptide P5, relative to basal activity (four P5 concentrations; value at 133 uM)” value [2] was 1.7 fold, the “fold stimulation of single-turnover ATPase activity of the 32P-ATP/Ssa1 complex by peptide P5, relative to basal activity (four P5 concentrations; value at 133 uM)” value [3] was 2.8 fold and the binding result [4] was “binds”.

B2: fluorescein-labeled P5 peptide (peptide)
peptide: Flc-CALLLSAPRR
notes: peptide substrate P5; also called F-P5; source: bought: Sigma Chemical, St. Louis, MO
B2: binds [5]; binds [6]; binds [7].
